Values belong to the substance of their own block, whether it stands above or below them.
Experiments:
[1] = biological target: Ds-TM-ICD-ΔD-III:V5 (Drosophila); assay: co-IP; S2 cells co-transfected; lysed in RIPA buffer; results in supplementary figures (S6-S9) or without a figure; which beads (V5-Trap or Fab-Trap) is not told in what was shown
[2] = biological target: Ds-TM-ICD-ΔD-II:V5 (Drosophila); assay: as above
[3] = biological target: Ds-TM-ICD-ΔD-III:V5 (Drosophila); assay: co-IP; S2 cells co-transfected; lysed in RIPA buffer; V5-tagged Ds construct precipitated with V5-Trap magnetic agarose beads, 1 h; blots with anti-V5 and anti-FLAG (Figs 4E, 5G, 6D,F, 8K)
[4] = biological target: Ds-TM-ICD-ΔD-II:V5 (Drosophila); assay: as above

co-precipitation relative to Ds-ICD full length [1]: 35% | co-precipitation relative to Ds-ICD full length [2]: 30%
Substance: Sple-N:FLAG (from UniProt A1Z6W3 1-349) (domain or fragment)

co-precipitation relative to control (Ds-ICD:V5) [3]: 40% | co-precipitation relative to control (Ds-ICD:V5) [4]: 57%
Substance: MyoID:FLAG (from UniProt Q23978 1-1011) (natural protein)

co-precipitation relative to Ds-ICD full length [4]: 15%
Substance: FLAG:Lft (Lowfat) (from UniProt Q9VKY1 1-268) (natural protein)
